Results reported in the supplement of paper PMC5998384.

Assays:
HeLa Kyoto [1] = assay: solubility in G1/S (NP-40 vs SDS abundance) (log2 ratio); higher = more soluble; conditions: cell cycle stage: G1/S
HeLa Kyoto [2] = assay: solubility change mitosis vs G1/S (difference of NP-40 vs SDS log2 ratios) (log2 ratio difference); higher = more soluble in mitosis
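Wherever solubility change mitosis vs G1/S (difference of NP-40 vs SDS log2 ratios) is given: synchronized HeLa Kyoto cells (double thymidine block for G1/S, nocodazole release for mitosis), protein amounts in NP-40 versus SDS lysates quantified by mass spectrometry, three biological replicates.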
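Wherever solubility in G1/S (NP-40 vs SDS abundance) is given: HeLa Kyoto cells arrested at G1/S by double thymidine block, proteins quantified by TMT10plex mass spectrometry in mild NP-40 versus SDS extracts, three biological replicates.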

| Sequence | solubility in G1/S (log2) (HeLa Kyoto [1]) | solubility change mitosis (log2) (HeLa Kyoto [2]) |
| --- | --- | --- |
| MKQLPAATVRLLSSSQIITSVVSVVKELIENSLDAGATSVDVKLENYGFDKIEVRDNGEGIKAVDAPVMAMKYYTSKINSHEDLENLTTYGFRGEALGSICCIAEVLITTRTAADNFSTQYVLDGSGHILSQKPSHLGQGTTVTALRLFKNLPVRKQFYSTAKKCKDEIKKIQDLLMSFGILKPDLRIVFVHNKAVIWQKSRVSDHKMALMSVLGTAVMNNMESFQYHSEESQIYLSGFLPKCDADHSFTSLSTPERSFIFINSRPVHQKDILKLIRHHYNLKCLKESTRLYPVFFLKIDVPTADVDVNLTPDKSQVLLQNKESVLIALENLMTTCYGPLPSTNSYENNKTDVSAADIVLSKTAETDVLFNKVESSGKNYSNVDTSVIPFQNDMHNDESGKNTDDCLNHQISIGDFGYGHCSSEISNIDKNTKNAFQDISMSNVSWENSQTEYSKTCFISSVKHTQSENGNKDHIDESGENEEEAGLENSSEISADEWSRGNILKNSVGENIEPVKILVPEKSLPCKVSNNNYPIPEQMNLNEDSCNKKSNVIDNKSGKVTAYDLLSNRVIKKPMSASALFVQDHRPQFLIENPKTSLEDATLQIEELWKTLSEEEKLKYEEKATKDLERYNSQMKRAIEQESQMSLKDGRKKIKPTSAWNLAQKHKLKTSLSNQPKLDELLQSQIEKRRSQNIKMVQIPFSMKNLKINFKKQNKVDLEEKDEPCLIHNLRFPDAWLMTSKTEVMLLNPYRVEEALLFKRLLENHKLPAEPLEKPIMLTESLFNGSHYLDVLYKMTADDQRYSGSTYLSDPRLTANGFKIKLIPGVSITENYLEIEGMANCLPFYGVADLKEILNAILNRNAKEVYECRPRKVISYLEGEAVRLSRQLPMYLSKEDIQDIIYRMKHQFGNEIKECVHGRPFFHHLTYLPETT [PMS1] | -0.0908 | -0.108 |
| MLARALLLCAVLALSHTANPCCSHPCQNRGVCMSVGFDQYKCDCTRTGFYGENCSTPEFLTRIKLFLKPTPNTVHYILTHFKGFWNVVNNIPFLRNAIMSYVLTSRSHLIDSPPTYNADYGYKSWEAFSNLSYYTRALPPVPDDCPTPLGVKGKKQLPDSNEIVEKLLLRRKFIPDPQGSNMMFAFFAQHFTHQFFKTDHKRGPAFTNGLGHGVDLNHIYGETLARQRKLRLFKDGKMKYQIIDGEMYPPTVKDTQAEMIYPPQVPEHLRFAVGQEVFGLVPGLMMYATIWLREHNRVCDVLKQEHPEWGDEQLFQTSRLILIGETIKIVIEDYVQHLSGYHFKLKFDPELLFNKQFQYQNRIAAEFNTLYHWHPLLPDTFQIHDQKYNYQQFIYNNSILLEHGITQFVESFTRQIAGRVAGGRNVPPAVQKVSQASIDQSRQMKYQSFNEYRKRFMLKPYESFEELTGEKEMSAELEALYGDIDAVELYPALLVEKPRPDAIFGETMVEVGAPFSLKGLMGNVICSPAYWKPSTFGGEVGFQIINTASIQSLICNNVKGCPFTSFSVPDPELIKTVTINASSSRSGLDDINPTVLLKERSTEL [PTGS2] | 0.069 | -0.117 |
| MLGQQQQQLYSSAALLTGERSRLLTCYVQDYLECVESLPHDMQRNVSVLRELDNKYQETLKEIDDVYEKYKKEDDLNQKKRLQQLLQRALINSQELGDEKIQIVTQMLELVENRARQMELHSQCFQDPAESERASDKAKMDSSQPERSSRRPRRQRTSESRDLCHMANGIEDCDDQPPKEKKSKSAKKKKRSKAKQEREASPVEFAIDPNEPTYCLCNQVSYGEMIGCDNEQCPIEWFHFSCVSLTYKPKGKWYCPKCRGDNEKTMDKSTEKTKKDRRSR [ING2] | -0.404 | 0.625 |
| MLQSLAGSSCVRLVERHRSAWCFGFLVLGYLLYLVFGAVVFSSVELPYEDLLRQELRKLKRRFLEEHECLSEQQLEQFLGRVLEASNYGVSVLSNASGNWNWDFTSALFFASTVLSTTGYGHTVPLSDGGKAFCIIYSVIGIPFTLLFLTAVVQRITVHVTRRPVLYFHIRWGFSKQVVAIVHAVLLGFVTVSCFFFIPAAVFSVLEDDWNFLESFYFCFISLSTIGLGDYVPGEGYNQKFRELYKIGITCYLLLGLIAMLVVLETFCELHELKKFRKMFYVKKDKDEDQVHIIEHDQLSFSSITDQAAGMKEDQKQNEPFVATQSSACVDGPANH [KCNK1] | -0.169 | -0.0475 |
| MLRLLASGCARGPGPGVGARPAAGLFHPGRRQSRQASDAPRNQPPSPEFVARPVGVCSMMRLPVQTSPEGLDAAFIGVPLDTGTSNRPGARFGPRRIREESVMLGTVNPSTGALPFQSLMVADLGDVNVNLYNLQDSCRRIQEAYEKIVAAGCIPLTLGGDHTITYPILQAMAKKHGPVGLLHVDAHTDTTDKALGEKLYHGAPFRRCVDEGLLDCKRVVQIGIRGSSTTLDPYRYNRSQGFRVVLAEDCWMKSLVPLMGEVRQQMGGKPIYISFDIDALDPAYAPGTGTPEIAGLTPSQALEIIRGCQGLNVMGCDLVEVSPPYDLSGNTALLAANLLFEMLCALPKVTTV [AGMAT] | 0.243 | 0.0673 |
| MLRLQMTDGHISCTAVEFSYMSKISLNTPPGTKVKLSGIVDIKNGFLLLNDSNTTVLGGEVEHLIEKWELQRSLSKHNRSNIGTEGGPPPFVPFGQKCVSHVQVDSRELDRRKTLQVTMPVKPTNDNDEFEKQRTAAIAEVAKSKETKTFGGGGGGARSNLNMNAAGNRNREVLQKEKSTKSEGKHEGVYRELVDEKALKHITEMGFSKEASRQALMDNGNNLEAALNVLLTSNKQKPVMGPPLRGRGKGRGRIRSEDEEDLGNARPSAPSTLFDFLESKMGTLNVEEPKSQPQQLHQGQYRSSNTEQNGVKDNNHLRHPPRNDTRQPRNEKPPRFQRDSQNSKSVLEGSGLPRNRGSERPSTSSVSEVWAEDRIKCDRPYSRYDRTKDTSYPLGSQHSDGAFKKRDNSMQSRSGKGPSFAEAKENPLPQGSVDYNNQKRGKRESQTSIPDYFYDRKSQTINNEAFSGIKIEKHFNVNTDYQNPVRSNSFIGVPNGEVEMPLKGRRIGPIKPAGPVTAVPCDDKIFYNSGPKRRSGPIKPEKILESSIPMEYAKMWKPGDECFALYWEDNKFYRAEVEALHSSGMTAVVKFIDYGNYEEVLLSNIKPIQTEAWEEEGTYDQTLEFRRGGDGQPRRSTRPTQQFYQPPRARN [TDRD3] | -0.658 | 0.149 |
| MLRRPAPALAPAARLLLAGLLCGGGVWAARVNKHKPWLEPTYHGIVTENDNTVLLDPPLIALDKDAPLRFAESFEVTVTKEGEICGFKIHGQNVPFDAVVVDKSTGEGVIRSKEKLDCELQKDYSFTIQAYDCGKGPDGTNVKKSHKATVHIQVNDVNEYAPVFKEKSYKATVIEGKQYDSILRVEAVDADCSPQFSQICSYEIITPDVPFTVDKDGYIKNTEKLNYGKEHQYKLTVTAYDCGKKRATEDVLVKISIKPTCTPGWQGWNNRIEYEPGTGALAVFPNIHLETCDEPVASVQATVELETSHIGKGCDRDTYSEKSLHRLCGAAAGTAELLPSPSGSLNWTMGLPTDNGHDSDQVFEFNGTQAVRIPDGVVSVSPKEPFTISVWMRHGPFGRKKETILCSSDKTDMNRHHYSLYVHGCRLIFLFRQDPSEEKKYRPAEFHWKLNQVCDEEWHHYVLNVEFPSVTLYVDGTSHEPFSVTEDYPLHPSKIETQLVVGACWQEFSGVENDNETEPVTVASAGGDLHMTQFFRGNLAGLTLRSGKLADKKVIDCLYTCKEGLDLQVLEDSGRGVQIQAHPSQLVLTLEGEDLGELDKAMQHISYLNSRQFPTPGIRRLKITSTIKCFNEATCISVPPVDGYVMVLQPEEPKISLSGVHHFARAASEFESSEGVFLFPELRIISTITREVEPEGDGAEDPTVQESLVSEEIVHDLDTCEVTVEGEELNHEQESLEVDMARLQQKGIEVSSSELGMTFTGVDTMASYEEVLHLLRYRNWHARSLLDRKFKLICSELNGRYISNEFKVEVNVIHTANPMEHANHMAAQPQFVHPEHRSFVDLSGHNLANPHPFAVVPSTATVVIVVCVSFLVFMIILGVFRIRAAHRRTMRDQDTGKENEMDWDDSALTITVNPMETYEDQHSSEEEEEEEEEEESEDGEEEDDITSAESESSEEEEGEQGDPQNATRQQQLEWDDSTLSY [CLSTN1] | -0.0306 | -0.189 |
| MMADEEEEVKPILQKLQELVDQLYSFRDCYFETHSVEDAGRKQQDVQKEMEKTLQQMEEVVGSVQGKAQVLMLTGKALNVTPDYSPKAEELLSKAVKLEPELVEAWNQLGEVYWKKGDVAAAHTCFSGALTHCRNKVSLQNLSMVLRQLRTDTEDEHSHHVMDSVRQAKLAVQMDVHDGRSWYILGNSYLSLYFSTGQNPKISQQALSAYAQAEKVDRKASSNPDLHLNRATLHKYEESYGEALEGFSRAAALDPAWPEPRQREQQLLEFLDRLTSLLESKGKVKTKKLQSMLGSLRPAHLGPCSDGHYQSASGQKVTLELKPLSTLQPGVNSGAVILGKVVFSLTTEEKVPFTFGLVDSDGPCYAVMVYNIVQSWGVLIGDSVAIPEPNLRLHRIQHKGKDYSFSSVRVETPLLLVVNGKPQGSSSQAVATVASRPQCE [TTC5] | 0.132 | 0.145 |
| MMAQSNMFTVADVLSQDELRKKLYQTFKDRGILDTLKTQLRNQLIHELMHPVLSGELQPRSISVEGSSLLIGASNSLVADHLQRCGYEYSLSVFFPESGLAKEKVFTMQDLLQLIKINPTSSLYKSLVSGSDKENQKGFLMHFLKELAEYHQAKESCNMETQTSSTFNRDSLAEKLQLIDDQFADAYPQRIKFESLEIKLNEYKREIEEQLRAEMCQKLKFFKDTEIAKIKMEAKKKYEKELTMFQNDFEKACQAKSEALVLREKSTLERIHKHQEIETKEIYAQRQLLLKDMDLLRGREAELKQRVEAFELNQKLQEEKHKSITEALRRQEQNIKSFEETYDRKLKNELLKYQLELKDDYIIRTNRLIEDERKNKEKAVHLQEELIAINSKKEELNQSVNRVKELELELESVKAQSLAITKQNHMLNEKVKEMSDYSLLKEEKLELLAQNKLLKQQLEESRNENLRLLNRLAQPAPELAVFQKELRKAEKAIVVEHEEFESCRQALHKQLQDEIEHSAQLKAQILGYKASVKSLTTQVADLKLQLKQTQTALENEVYCNPKQSVIDRSVNGLINGNVVPCNGEISGDFLNNPFKQENVLARMVASRITNYPTAWVEGSSPDSDLEFVANTKARVKELQQEAERLEKAFRSYHRRVIKNSAKSPLAAKSPPSLHLLEAFKNITSSSPERHIFGEDRVVSEQPQVGTLEERNDVVEALTGSAASRLRGGTSSRRLSSTPLPKAKRSLESEMYLEGLGRSHIASPSPCPDRMPLPSPTESRHSLSIPPVSSPPEQKVGLYRRQTELQDKSEFSDVDKLAFKDNEEFESSFESAGNMPRQLEMGGLSPAGDMSHVDAAAAAVPLSYQHPSVDQKQIEEQKEEEKIREQQVKERRQREERRQSNLQEVLERERRELEKLYQERKMIEESLKIKIKKELEMENELEMSNQEIKDKSAHSENPLEKYMKIIQQEQDQESADKSSKKMVQEGSLVDTLQSSDKVESLTGFSHEELDDSW [OFD1] | -0.146 | 0.252 |
| MMDPCSVGVQLRTTNECHKTYYTRHTGFKTLQELSSNDMLLLQLRTGMTLSGNNTICFHHVKIYIDRFEDLQKSCCDPFNIHKKLAKKNLHVIDLDDATFLSAKFGRQLVPGWKLCPKCTQIINGSVDVDTEDRQKRKPESDGRTAKALRSLQFTNPGRQTEFAPETGKREKRRLTKNATAGSDRQVIPAKSKVYDSQGLLIFSGMDLCDCLDEDCLGCFYACPACGSTKCGAECRCDRKWLYEQIEIEGGEIIHNKHAG [ARL14EP] | -0.0781 | -0.0185 |
